Experimental findings from the DeepSol protein solubility set are described below.

This series in a line: soluble on expression in E. coli; label from the status in PepcDB or PDB records.
As for “MGLELRAIQSPIFSEPFDFTFHAQAFTLLVGSSGSGKSSLFQMIAQVSSLPYSGQVLIDGSEVSQLSIVERVQTVGILLQNPNHQFTMESLFEELVFTMENIGYHLQEIDSKIAEVVQQCRCKDILHRLIHHLSGGEKQKAALAVLFAMNPRVYLLDEPFASIDRKSRIEILEILKELVYDGKTVILCDHDLSDYKAYIDHMVELRDGKLREVFQIPSYEMTQVASKEVASSPELFHMNRVTGELGNRPLFSIADFTFYQGISCILGDNGVGKSTLFRSILQFQKYKGSITWKGSVLKKKKSLYRDLTGVVQEAEKQFIRVSLREELQLDGPDSERNQRIFQALRYFDLEQAVDKSPYQLSGGQQKILQLLTILTSKASVILLDEPFAGLDDRACHYFCKWIVEERNQGRSFLLISHRLDPLISVVDYWIEMTSQGLRHVKEVTITKPLTSQSSNTQGEVR”, the “soluble on expression in E. coli” value is given as “not soluble”.
Then “TVHKQDGKVLEIELSSLKEALSFVSLIDGYYRLTADAHHYLCKEVAPPAVLENIHSNCHGPISMDFAISKLKKAGNQTGLYVLRCSPKDFNKYFLTFAVERENVIEYKHCLITKNENGEYNLSGTKRNFSNLKDLLNCYQMETVRSDSIIFQFTKCCPPKPKDKSNLLVFRTNGISDVQISPTLQRHNNVNQMVFHKIRNEDLIFNESLGQGTFTKIFKGVRREVGDYGQLHKTEVLLKVLDKAHRNYSESFFEAASMMSQLSHKHLVLNYGVCVCGEENILVQEFVKFGSLDTYLKKNKNSINILWKLGVAKQLAWAMHFLEEKSLIHGNVCAKNILLIREEDRRTGNPPFIKLSDPGISITVLPKDILQERIPWVPPECIENPKNLNLATDKWSFGTTLWEICSGGDKPLSALDSQRKLQFYEDKHQLPAPKWTELANLINNCMDYEPDFRPAFRAVIRDLNSLFTPDYELLTENDMLPNMRIGALGFSGAFEDRDPTQFEERHLKFLQQLGKGNFGSVEMCRYDPLQDNTGEVVAVKKLQHSTEEHLRDFEREIEILKSLQHDNIVKYKGVCYSAGRRNLRLIMEYLPYGSLRDYLQKHKERIDHKKLLQYTSQICKGMEYLGTKRYIHRDLATRNILVENENRVKIGDFGLTKVLPQDKEYYKVKEPGESPIFWYAPESLTESKFSVASDVWSFGVVLYELFTYIEKSKSPPVEFMRMIGNDKQGQMIVFHLIELLKSNGRLPRPEGCPDEIYVIMTECWNNNVSQRPSFRDLSLRVDQIRDSIAA”, with “not soluble”.
For “PHRPVQESVANAYDALGGYLEAKADFFDPDEAAWIGNRHIDLAMSNTGVITAFNQCRSALFYRLRGKHRHPRTAKMLRYYFAAQDIHERISSAHVDYQEMSEKFKNTDIIFRIHRLLEMQGQACRNTAQALRASKDYVYSKRLGRAIEGCRQSLRLLSDSNDSPDIRHLRRLLDNLGSVDQQFRQLQHNGLQAENDRMGDTRIAALETSSLKNTWQAIRPQLNLESGVFRH”, the “soluble on expression in E. coli” value is listed as “not soluble”.
For the sequence “MRWVSALEKRNFLTSFLHNHRLKHPDARFVLKYLLQHPHLLENVQFTETEQKQGRWLIISTAMAEEEGLVFYRRGQKSTSLAAIMGDLALHPNEPLYLTLHFPGKARNFSYLRLIDHQAFENVRRHERHEKMAKAAEQVLDEALKRHEVSILKMQIDQALDRKDMEWFQMLTEQLKKYEGQS”, the “soluble on expression in E. coli” value is “not soluble”.
For the sequence “MSLDAGRHRVALLVPLTGANAAVGQSIANAATMALLDTNAANMRITTYDTASGAGSAASRAISDGNKLILGPLLGNDVVLVSNVARPAKVPMITYSNDSAVASRDVFVMGQAPGQSVARVLGFAKSKGIGSVAAIIPTGDYGQRAMNAVVDSGRALGVTVTAIETYDRGNTSVASAVRRVKEKGRFDALLIADGSRIALQAAPLAGKGVKLLGTELWSGEAAIAKSPATRGSWFAAVSDGRFGQFEKSYRTRFGATPSRLATLGYDSVLLTLNVARNWKPGTTFPTAKLYDPQGFIGLDGVFRFTASGMAERAMEVREVGAGTFTTVSPAEGHHHHHH”, the “soluble on expression in E. coli” value was “soluble”.
With “MTTLNKENIQKEFKERLSEDELLNCMRCGFCLPTCPTYIQSGYKESHSPRGRIALMKAVVDGLIEPDEDVENTLNVCLGCRACEPVCPSGVNYGHLLEEARDIINQNKKFSMPVRAVRKVVFEELFPHQNRMRTLTGLIGFYQRSGLQTITHKTGIMKLFPETLATMDLVLPKVPKMKAMKDRPTFLPAESTKKKQVAFFTGCLMDTMFLETNNATMKLLQLAGCDIVIPKTQSCCGALHGHAGEKSGAKELAKRNIKAFEDLNIDYIITNAGGCGAYLVDYDYLLKDDPQWAGRAKQFVSKIKDITAILVELDFHKRNDLRLTPQIITYQDSCHLRNVMRTSSEPRMLLEAIQGATYREMKDADRCCGSAGIYNIVHSELSMEFLDYKMDRVHETDATTIVTANPGCLLQMKLGIEREGLSHKMRGIHIVDLLLEAIETNS”, the “soluble on expression in E. coli” value was “not soluble”.
“MGSDKIHHHHHHMLGLIKKKANTLLGIDISSTSVKLLELSRSGGRYKVEAYAVEPLPPNAVVEKNIVELEGVGQALSRVLVKAKTNLKSAVVAVAGSAVITKTIEMEAGLSEDELENQLKIEADQYIPYPLEEVAIDFEVQGLSARNPERVDVLLAACRKENVEVREAALALAGLTAKVVDVEAYALERSYALLSSQLGADTDQLTVAVVDIGATMTTLSVLHNGRTIYTREQLFGGRQLTEEIQRRYGLSVEEAGLAKKQGGLPDDYDSEVLRPFKDAVVQQVSRSLQFFFAAGQFNDVDYIVLAGGTASIQDLDRLIQQKIGTPTLVANPFADMALNGKVNAGALASDAPALMIACGLALRSFD”: the “soluble on expression in E. coli” value is “not soluble”.
Take “LYAFFKTMPKGGELHYHLAGGAYPETMLALAANGNYCLDKHTFAVSKDSSHCEGVNVKEVFNNPELYSNIIKDWSMKDFIPGKESGHDHFFNGFIKYMPIVFDYQPQLLADIVQRAAQQKAQYLEIMTIPDNAQSLTYGDLIKDIPSYDQKRRLLLANKDFQSNIQNTVLESDRILTKASQELRCNENPASDSCHVKIKFLYYVLREQPVDNVFAQALNAFEAVSKSKGNLIGVNLVQPEDGIISLRDYQKHMSIFEYLHRIYPNVPITLHAGELSPQAVTPENLSHHIRDALLIGHAQRIGHGVDIGYENNAEDTLKYMANHHIPVEINLISNLKILDISGSNHPLNYYLSHNVPVVLSTDDEGVLRTDLTQQYVEAAKEHGLSYQQLKQINRNTLTYSFLPGKSIWANADKAELVPDCHDLGSKSCQKFIAHNEKAKLQWNLEQQLIAFEKS”: the “soluble on expression in E. coli” value is “not soluble”.
With “MSLKSYRPIELAKMFNLHSNTIRFYESIGYISKASRKPNGYREFTDKHILQLTICRHILGYRYTNRHIRDTGKLIIICSAESKLIEGKQYAQDYIKIIQNEIEIAEKTAQLLHKWAELKRDTDNSDSIEKFYTRNEVACLLGVTSEAVRNWERNDLIKSDKRGYRNAVLFNNIDLDRIRIIYMLRQTGYSMSAIHRCLMVYDKGQTELVVAALNKTDERELLSVGDCWLSELKKLESAAEEIPLIFDKLKESEGHHHHHH”, the “soluble on expression in E. coli” value is “soluble”.
Consider “SLSGGKYVDSEGHLYTVPIREQGNIYKPNNKAMADELSEKQVYDAHTKEIDLVNRDPKHLNDDVVKIDFEDVIAEPEGTHSFDGIWKASFSTFTVTKEG”, for which the “soluble on expression in E. coli” value is “soluble”.
Then “MSLRAAKRHGISIIVAEKNLILGLDVGNTVIKAVLFDTAGRQIAQHAIDGHSTYPQPGYVERDLEELWRNGCEAIRQLLVKSAVDPNSIAGVGCAGHGNGLYLLDKEQQPLLGIQSLDSRAADMAAELDRKSGDLLQARCLQRPWPAQTPTLLAWVKRHALDLYAQTSTVLFCKDFINFRLTGCLANDISDLSGAGLLALPEVLLDRELLSLYGLEDAFAFFPRCVESADIVGQVTREAAGLTGLSEGTPVIGGFFDVVSSAMGSGVINPGEASVIAGTWSINQVFADKPVVSPDVFMVTTFGRDRYVNIESSATSAANLEWYVHRVRADHGDHAFERCNELVGSVTPRADDPFFHPFIFGSRLGAEFRGGFYGLAGWHGEGHMVRALFEGVCFEHRRHIGVLREAGLPVESAVMSGGGSRSQHWPQIMADVLEIPLRVAEARETGALGAALGAAVATGLYPNYEEAVAAMTRVQNSYQPDTARVSHYRRRYGLYQELTGQLRSFWSALRLPQEGHHHHHH”, with “not soluble”; and “MKPLLETIDTRFGTTNKHAFSRGNTLPYTGVPFGMNYFVPQTSDQDGSWFFDPHLPIFQGIRLTHQPSPWIGDYSWLLLTPVTSQLGGDSLFHRQSSYDIDKACFQPHYLKLFSLRYQIETQLTPTCYGASIRLNQKQGKALSLYLHAADELTVEQVDKRTLALRQEGKTETNKNSLTMFTLEHHHHHH”, with “not soluble”.
For the sequence “SNPTITRIELSYQDSSIANGTSTTLEVTAIFDNGTNQNITDSTSIVPDSQSVVTIEGNRVRGIASGSSIIKAEYNGLYSEQKITVTPAILNSIQVTSLESGILPKGTNRQFSAIGIFSDGSHQDISNEPLIVWSSSNPDLVRVDDSGLASGINLGTAHIRASFQSKQGAEEMTVGDAVLSQIQVTSNDLNIPLGKKQKLTATGIYSDNSNRDISSSVIWNSSNSTIANIQNNGILETADTGIVTVSASSENIIGSVKLIVTPAALVSISVSPTNSTVAKGLQENFKATGIFTDNSNSDITDQVTWDSSNTDILSISNASDSHGLASTLNQGNVKVTASIGGIQGSTDFKVTQAALTSIEVSPTRTSIAKGLTQKFTAIGIFTDNSKKDITDQVTWNSSSAIVSVSNLDNNKGLGKTNSVGNTTITATLGKVSGNTWFTVVPAV”, the “soluble on expression in E. coli” value is reported as “not soluble”.
With “MPKVEIAPSEIKIPDNVLKAKLGFGGAEEIPEEFRKTVNRAYEELLDAAKPVVLWRDFEVDGSLSFDDMRLTGELATKHLSGSKIITVFLATLGKKVDEKIEEYFRKGEDLLAFFIDGIASEMVEYALRKVDAELRMKRSNLEGSFRISPGYGDLPLSLNKKIAEIFKEEVDVNVIEDSYVLVPRKTITAFVGWREKNEKQT”, the “soluble on expression in E. coli” value is given as “not soluble”.
“MGSDKIHHHHHHMRLPPLKALPVFEAAARLNSFSAASEELAITQSAVSHQIKQLETYLGERLFWRSGRRVTLTDEGRQYFDAIGSALLQIERASEQLLGHEESRLRLSVFSSFAVRWLVPRLPDLQRLHPQIDLALEMSSENPVLSDRVADCFITIHRDSRAYSYDLLYEERLFPVCSQDYWQRMRRELGRDVEPERRDEQPVSPGEMAGFPLLSTHSIFDRPAGDWEAWYSAAGELMPTGTRVQHFSHMLLALEAARFHQGIALTNDYMLSTRKDSEDFVRLPTHSVVTGDKFYFAWKTSRRRERGIQTLRRWLVDEAIRGGLRGE”: the “soluble on expression in E. coli” value was “not soluble”.
On to “MMLHAQHMPGQPGTPSLVFLHGFSGDCHEWQPVGEQFHGCSRLYIDLPGHGGSAAIPVDGFADVIRLLRATLISYNILKFWLVGYSLGGRVAMMAACQGIPGLCGLVVEGGHPGLQNEQARAERRLSDGRWAERFRHEPLTEVFHDWYQQPVFASLTAQQRQALTALRSQNNGETLAAMLEATSLAVQPDLREALNALAFPFYYLCGERDSKFRALAQEVAATCHVIRNAGHNAHRENPAGVVDSLAQILRL”, for which the “soluble on expression in E. coli” value is given as “not soluble”.
Consider “MDKEETKTKPRLLRYEEKKYEDVKPLETQPAEIAEKETLEYKTVRTFSESLKSEKTEDYLRESIIQQHMVSPEPASLKEKGKSRRKKDQTHACPNVRKARPVSYDRTEPKDDDVIRNIIRLREKLGWQTILPQHSLKYGSSKIAIQKITLKKPLEDDGEFVYCLPRKSPKSLYNPYDLQVINIVGSVKE”, for which the “soluble on expression in E. coli” value was “soluble”.
Next, “MTAPLIRVSRKRTADPHDALILHTKRAKHGGNPLVFTLYKAAGNDLELNGARVLDLPTQEHGMELADEENPLGFVKDEAVGLVGEVEKNVKKPAEQVSLNGRLLQPVTDGGGAAAGSSDDVVYDYYAIHEKRGNPEVVGNLEQDIEGADFRFAKRDELDLGDEDDSDGPPADDEDDSNDEDNWRNDYPDEESYDEDSDNGDPYGISEPDHWHAGEEAYSDESFHRRLQNMDLNDERYEAFYEGDETDEDAD”: “soluble”.
Next, “DITEIEEAMNRQRVAGRVFEASQDGLIVLNHKGVITMVNPAVTKLVGLEIDQLVGQSFIQTIRWRKLQEMMPSIIESIENYGVWQGEVIEQNHLGLLVPMFARVNRIVKCENNGFYDLVIILTD”: “not soluble”.
